# Results published in paper PMC11522930, “2,2-Difluoro Derivatives of Fucose Can Inhibit Cell Surface Fucosylation without Causing Slow Transfer to Acceptors” (JACS Au, 2024).
# Substrate: C[C@@H]1O[C@H](OP(=O)(O)OP(=O)(O)OC[C@H]2O[C@@H](n3cnc4c(=O)[nH]c(N)nc43)[C@H](O)[C@@H]2O)[C@@H](O)[C@H](O)[C@@H]1O
# Experiment: GDP-Glo glycosyltransferase assay, nonlinear regression
# Assay type: biochemical, Homo sapiens
# Conditions: saturating biantennary N-glycan acceptor 7; 1 h
# Text: GDP-Glo glycosyltransferase assay, nonlinear regression on FUT8
protein,measurement,value
"FUT8 (Homo sapiens) (protein, isolated enzyme; construct not described in main text) MRPWTGSWRWIMLILFAWGTLLFYIGGHLVRDNDHPDHSSRELSKILAKLERLKQQNEDLRRMAESLRIPEGPIDQGPAIGRVRVLEEQLVKAKEQIENYKKQTRNGLGKDHEILRRRIENGAKELWFFLQSELKKLKNLEGNELQRHADEFLLDLGHHERSIMTDLYYLSQTDGAGDWREKEAKDLTELVQRRITYLQNPKDCSKAKKLVCNINKGCGYGCQLHHVVYCFMIAYGTQRTLILESQNWRYATGGWETVFRPVSETCTDRSGISTGHWSGEVKDKNVQVVELPIVDSLHPRPPYLPLAVPEDLADRLVRVHGDPAVWWVSQFVKYLIRPQPWLEKEIEEATKKLGFKHPVIGVHVRRTDKVGTEAAFHPIEEYMVHVEEHFQLLARRMQVDKKRVYLATDDPSLLKEAKTKYPNYEFISDNSISWSAGLHNRYTENSLRGVILDIHFLSQADFLVCTFSSQVCRVAYEIMQTLHPDASANFHSLDDIYYFGGQNAHNQIAIYAHQPRTADEIPMEPGDIIGVAGNHWDGYSKGVNRKLGRTGLYPSYKVREKIETVKYPTYPEAEK",Km,33.8 ± 2.5 µM
